These are literature values, as cited in article PMC5983787.

The target of series [1] is Cx43 (UniProt P17302).
Series [2] addresses Cx43 (UniProt P17302). The source holds these as a separate data set.

Where two headings read alike, the source gives them in different places.

UniProt P17302, sequence (P17302 2-382): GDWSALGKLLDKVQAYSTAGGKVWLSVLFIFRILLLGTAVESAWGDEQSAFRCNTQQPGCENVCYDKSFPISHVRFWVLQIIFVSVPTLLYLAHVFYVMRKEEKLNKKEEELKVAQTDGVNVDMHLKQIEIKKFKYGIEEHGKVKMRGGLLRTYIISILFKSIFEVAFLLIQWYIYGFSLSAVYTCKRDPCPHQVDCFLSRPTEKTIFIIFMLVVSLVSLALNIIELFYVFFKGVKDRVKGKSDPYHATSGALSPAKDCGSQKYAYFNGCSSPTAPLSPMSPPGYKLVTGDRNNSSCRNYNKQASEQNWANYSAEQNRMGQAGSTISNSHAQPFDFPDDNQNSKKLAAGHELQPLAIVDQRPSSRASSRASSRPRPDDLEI

In the case of Nedd4 (from UniProt P46934), the Kd in the series with Cx43 [1] is 1060 µM; with Cx43 [2], 585 µM.

By Kd is commonly meant a measure of binding affinity in units of concentration.
